*1 amine or outer side, *2 acyl side, *3 side chain or, on linkers, in order; H or OH if unused. Side-chain parts run from the residue outwards. [ ]: non-standard residue; d: D form. The star is where a group is joined. C18 diacid = O=C(O)CCCCCCCCCCCCCCCCC(=O)*; C16 diacid = O=C(O)CCCCCCCCCCCCCCC(=O)*; γGlu = O=C(O)[C@H](CCC(=O)[*:2])N[*:1]; αMeK = C[C@](N)(CCCCN)C(=O)O; Nva = CCC[C@H](N)C(=O)O; Abu = CC[C@H](N)C(=O)O; Dap = NC[C@H](N)C(=O)O; AEEA = NCCOCCOCC(=O)O
T1: CRF1R receptor (UniProt P34998 24-415, limits assumed)
T1 sequence (looked up): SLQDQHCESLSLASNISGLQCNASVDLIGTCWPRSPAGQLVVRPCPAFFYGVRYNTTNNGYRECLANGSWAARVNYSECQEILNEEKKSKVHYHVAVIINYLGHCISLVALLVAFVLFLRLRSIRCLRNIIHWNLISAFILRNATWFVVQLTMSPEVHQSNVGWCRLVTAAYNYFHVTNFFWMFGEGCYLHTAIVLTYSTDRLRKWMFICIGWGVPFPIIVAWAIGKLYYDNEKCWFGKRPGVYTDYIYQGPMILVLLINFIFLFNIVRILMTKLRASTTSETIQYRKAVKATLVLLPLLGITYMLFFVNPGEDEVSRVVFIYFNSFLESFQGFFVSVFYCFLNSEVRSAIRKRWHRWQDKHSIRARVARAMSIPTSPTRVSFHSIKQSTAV


Legend:
CRF1R receptor = biological target: T1, CRF1R receptor; test: cell-based or functional assay
[1] = biological target: human corticotropin-releasing factor 2a (CRF2a receptor) (human), Q13324; test: cell-based or functional assay
human corticotropin-releasing factor 2a (CRF2a receptor) (human), Q13324, sequence (Q13324 20-411): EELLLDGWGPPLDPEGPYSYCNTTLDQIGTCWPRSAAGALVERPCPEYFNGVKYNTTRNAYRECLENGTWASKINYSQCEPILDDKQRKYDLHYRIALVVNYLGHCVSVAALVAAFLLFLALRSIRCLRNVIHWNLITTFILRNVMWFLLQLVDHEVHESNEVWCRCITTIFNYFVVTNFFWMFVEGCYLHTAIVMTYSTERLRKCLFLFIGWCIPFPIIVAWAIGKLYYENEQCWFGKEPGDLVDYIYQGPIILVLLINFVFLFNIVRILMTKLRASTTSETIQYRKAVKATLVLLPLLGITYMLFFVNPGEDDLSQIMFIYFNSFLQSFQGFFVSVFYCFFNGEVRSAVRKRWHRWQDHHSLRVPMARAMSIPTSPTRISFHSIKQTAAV

Binder | Emax (% I) (CRF1R receptor) [%] | EC50 [nM] (cAMP) [1]
Ac-IVLSLD[dV]PIKLK([γGlu-C16 diacid])QILLKQERQKKQREQAEKNEQILEQV-NH2 (SMILES CC[C@H](C)[C@H](NC(C)=O)C(=O)N[C@H](C(=O)N[C@@H](CC(C)C)C(=O)N[C@@H](CO)C(=O)N[C@@H](CC(C)C)C(=O)N[C@@H](CC(=O)O)C(=O)N[C@@H](C(=O)N1CCC[C@H]1C(=O)N[C@H](C(=O)N[C@@H](CCCCN)C(=O)N[C@@H](CC(C)C)C(=O)N[C@@H](CCCCNC(=O)CC[C@H](NC(=O)CCCCCCCCCCCCCCC(=O)O)C(=O)O)C(=O)N[C@@H](CCC(N)=O)C(=O)N[C@H](C(=O)N[C@@H](CC(C)C)C(=O)N[C@@H](CC(C)C)C(=O)N[C@@H](CCCCN)C(=O)N[C@@H](CCC(N)=O)C(=O)N[C@@H](CCC(=O)O)C(=O)N[C@@H](CCCNC(=N)N)C(=O)N[C@@H](CCC(N)=O)C(=O)N[C@@H](CCCCN)C(=O)N[C@@H](CCCCN)C(=O)N[C@@H](CCC(N)=O)C(=O)N[C@@H](CCCNC(=N)N)C(=O)N[C@@H](CCC(=O)O)C(=O)N[C@@H](CCC(N)=O)C(=O)N[C@@H](C)C(=O)N[C@@H](CCC(=O)O)C(=O)N[C@@H](CCCCN)C(=O)N[C@@H](CC(N)=O)C(=O)N[C@@H](CCC(=O)O)C(=O)N[C@@H](CCC(N)=O)C(=O)N[C@H](C(=O)N[C@@H](CC(C)C)C(=O)N[C@@H](CCC(=O)O)C(=O)N[C@@H](CCC(N)=O)C(=O)N[C@H](C(N)=O)C(C)C)[C@@H](C)CC)[C@@H](C)CC)[C@@H](C)CC)C(C)C)C(C)C) [SEQ ID NO 17] | 12 | 0.21
Ac-IVLSLD[dV]PIKLK([AEEA-AEEA-γGlu-C18 diacid])KILLEQEKQKKQREQAETN[Dap]QILAQV-NH2 (SMILES CC[C@H](C)[C@H](NC(C)=O)C(=O)N[C@H](C(=O)N[C@@H](CC(C)C)C(=O)N[C@@H](CO)C(=O)N[C@@H](CC(C)C)C(=O)N[C@@H](CC(=O)O)C(=O)N[C@@H](C(=O)N1CCC[C@H]1C(=O)N[C@H](C(=O)N[C@@H](CCCCN)C(=O)N[C@@H](CC(C)C)C(=O)N[C@@H](CCCCNC(=O)COCCOCCNC(=O)COCCOCCNC(=O)CC[C@H](NC(=O)CCCCCCCCCCCCCCCCC(=O)O)C(=O)O)C(=O)N[C@@H](CCCCN)C(=O)N[C@H](C(=O)N[C@@H](CC(C)C)C(=O)N[C@@H](CC(C)C)C(=O)N[C@@H](CCC(=O)O)C(=O)N[C@@H](CCC(N)=O)C(=O)N[C@@H](CCC(=O)O)C(=O)N[C@@H](CCCCN)C(=O)N[C@@H](CCC(N)=O)C(=O)N[C@@H](CCCCN)C(=O)N[C@@H](CCCCN)C(=O)N[C@@H](CCC(N)=O)C(=O)N[C@@H](CCCNC(=N)N)C(=O)N[C@@H](CCC(=O)O)C(=O)N[C@@H](CCC(N)=O)C(=O)N[C@@H](C)C(=O)N[C@@H](CCC(=O)O)C(=O)N[C@H](C(=O)N[C@@H](CC(N)=O)C(=O)N[C@@H](CN)C(=O)N[C@@H](CCC(N)=O)C(=O)N[C@H](C(=O)N[C@@H](CC(C)C)C(=O)N[C@@H](C)C(=O)N[C@@H](CCC(N)=O)C(=O)N[C@H](C(N)=O)C(C)C)[C@@H](C)CC)[C@@H](C)O)[C@@H](C)CC)[C@@H](C)CC)C(C)C)C(C)C) [SEQ ID NO 107] | 0 | 1.43
Ac-IVLSLD[dV]PIKLK([AEEA-AEEA-γGlu-C18 diacid])KILLEQEKQKKQREQAETNEQILAQV-NH2 (SMILES CC[C@H](C)[C@H](NC(C)=O)C(=O)N[C@H](C(=O)N[C@@H](CC(C)C)C(=O)N[C@@H](CO)C(=O)N[C@@H](CC(C)C)C(=O)N[C@@H](CC(=O)O)C(=O)N[C@@H](C(=O)N1CCC[C@H]1C(=O)N[C@H](C(=O)N[C@@H](CCCCN)C(=O)N[C@@H](CC(C)C)C(=O)N[C@@H](CCCCNC(=O)COCCOCCNC(=O)COCCOCCNC(=O)CC[C@H](NC(=O)CCCCCCCCCCCCCCCCC(=O)O)C(=O)O)C(=O)N[C@@H](CCCCN)C(=O)N[C@H](C(=O)N[C@@H](CC(C)C)C(=O)N[C@@H](CC(C)C)C(=O)N[C@@H](CCC(=O)O)C(=O)N[C@@H](CCC(N)=O)C(=O)N[C@@H](CCC(=O)O)C(=O)N[C@@H](CCCCN)C(=O)N[C@@H](CCC(N)=O)C(=O)N[C@@H](CCCCN)C(=O)N[C@@H](CCCCN)C(=O)N[C@@H](CCC(N)=O)C(=O)N[C@@H](CCCNC(=N)N)C(=O)N[C@@H](CCC(=O)O)C(=O)N[C@@H](CCC(N)=O)C(=O)N[C@@H](C)C(=O)N[C@@H](CCC(=O)O)C(=O)N[C@H](C(=O)N[C@@H](CC(N)=O)C(=O)N[C@@H](CCC(=O)O)C(=O)N[C@@H](CCC(N)=O)C(=O)N[C@H](C(=O)N[C@@H](CC(C)C)C(=O)N[C@@H](C)C(=O)N[C@@H](CCC(N)=O)C(=O)N[C@H](C(N)=O)C(C)C)[C@@H](C)CC)[C@@H](C)O)[C@@H](C)CC)[C@@H](C)CC)C(C)C)C(C)C) [SEQ ID NO 108] | 4 | 1.14

Other lines, results leading:

Emax (% I) (CRF1R receptor) [%] | EC50 [nM] (cAMP) [1] | Binder
6 | 0.35 | Ac-IVLSLD[dV]PIKLK([AEEA-AEEA-γGlu-C18 diacid])KILLEQEKQKKQREQAETN[αMeK]QILAQV-NH2 (not fully specified) [SEQ ID NO 106]
7 | 0.17 | Ac-IVLSLD[dV]PIKLK([γGlu-C16 diacid])KILLEQEKQKKQREQAETN[Nva]QILAQV-NH2 (SMILES CCC[C@H](NC(=O)[C@H](CC(N)=O)NC(=O)[C@@H](NC(=O)[C@H](CCC(=O)O)NC(=O)[C@H](C)NC(=O)[C@H](CCC(N)=O)NC(=O)[C@H](CCC(=O)O)NC(=O)[C@H](CCCNC(=N)N)NC(=O)[C@H](CCC(N)=O)NC(=O)[C@H](CCCCN)NC(=O)[C@H](CCCCN)NC(=O)[C@H](CCC(N)=O)NC(=O)[C@H](CCCCN)NC(=O)[C@H](CCC(=O)O)NC(=O)[C@H](CCC(N)=O)NC(=O)[C@H](CCC(=O)O)NC(=O)[C@H](CC(C)C)NC(=O)[C@H](CC(C)C)NC(=O)[C@@H](NC(=O)[C@H](CCCCN)NC(=O)[C@H](CCCCNC(=O)CC[C@H](NC(=O)CCCCCCCCCCCCCCC(=O)O)C(=O)O)NC(=O)[C@H](CC(C)C)NC(=O)[C@H](CCCCN)NC(=O)[C@@H](NC(=O)[C@@H]1CCCN1C(=O)[C@H](NC(=O)[C@H](CC(=O)O)NC(=O)[C@H](CC(C)C)NC(=O)[C@H](CO)NC(=O)[C@H](CC(C)C)NC(=O)[C@@H](NC(=O)[C@@H](NC(C)=O)[C@@H](C)CC)C(C)C)C(C)C)[C@@H](C)CC)[C@@H](C)CC)[C@@H](C)O)C(=O)N[C@@H](CCC(N)=O)C(=O)N[C@H](C(=O)N[C@@H](CC(C)C)C(=O)N[C@@H](C)C(=O)N[C@@H](CCC(N)=O)C(=O)N[C@H](C(N)=O)C(C)C)[C@@H](C)CC) [SEQ ID NO 52]
9 | 0.12 | Ac-IVLSLD[dV]PIKLK([γGlu-C16 diacid])KILLEQEKQKKQREQAETN[Abu]QILAQV-NH2 (SMILES CC[C@H](NC(=O)[C@H](CC(N)=O)NC(=O)[C@@H](NC(=O)[C@H](CCC(=O)O)NC(=O)[C@H](C)NC(=O)[C@H](CCC(N)=O)NC(=O)[C@H](CCC(=O)O)NC(=O)[C@H](CCCNC(=N)N)NC(=O)[C@H](CCC(N)=O)NC(=O)[C@H](CCCCN)NC(=O)[C@H](CCCCN)NC(=O)[C@H](CCC(N)=O)NC(=O)[C@H](CCCCN)NC(=O)[C@H](CCC(=O)O)NC(=O)[C@H](CCC(N)=O)NC(=O)[C@H](CCC(=O)O)NC(=O)[C@H](CC(C)C)NC(=O)[C@H](CC(C)C)NC(=O)[C@@H](NC(=O)[C@H](CCCCN)NC(=O)[C@H](CCCCNC(=O)CC[C@H](NC(=O)CCCCCCCCCCCCCCC(=O)O)C(=O)O)NC(=O)[C@H](CC(C)C)NC(=O)[C@H](CCCCN)NC(=O)[C@@H](NC(=O)[C@@H]1CCCN1C(=O)[C@H](NC(=O)[C@H](CC(=O)O)NC(=O)[C@H](CC(C)C)NC(=O)[C@H](CO)NC(=O)[C@H](CC(C)C)NC(=O)[C@@H](NC(=O)[C@@H](NC(C)=O)[C@@H](C)CC)C(C)C)C(C)C)[C@@H](C)CC)[C@@H](C)CC)[C@@H](C)O)C(=O)N[C@@H](CCC(N)=O)C(=O)N[C@H](C(=O)N[C@@H](CC(C)C)C(=O)N[C@@H](C)C(=O)N[C@@H](CCC(N)=O)C(=O)N[C@H](C(N)=O)C(C)C)[C@@H](C)CC) [SEQ ID NO 51]
5 | 0.42 | Ac-IVLSLD[dV]PIKLK([γGlu-C16 diacid])KILLEQEKQKKQREQAETN[Dap]QILAQV-NH2 (SMILES CC[C@H](C)[C@H](NC(C)=O)C(=O)N[C@H](C(=O)N[C@@H](CC(C)C)C(=O)N[C@@H](CO)C(=O)N[C@@H](CC(C)C)C(=O)N[C@@H](CC(=O)O)C(=O)N[C@@H](C(=O)N1CCC[C@H]1C(=O)N[C@H](C(=O)N[C@@H](CCCCN)C(=O)N[C@@H](CC(C)C)C(=O)N[C@@H](CCCCNC(=O)CC[C@H](NC(=O)CCCCCCCCCCCCCCC(=O)O)C(=O)O)C(=O)N[C@@H](CCCCN)C(=O)N[C@H](C(=O)N[C@@H](CC(C)C)C(=O)N[C@@H](CC(C)C)C(=O)N[C@@H](CCC(=O)O)C(=O)N[C@@H](CCC(N)=O)C(=O)N[C@@H](CCC(=O)O)C(=O)N[C@@H](CCCCN)C(=O)N[C@@H](CCC(N)=O)C(=O)N[C@@H](CCCCN)C(=O)N[C@@H](CCCCN)C(=O)N[C@@H](CCC(N)=O)C(=O)N[C@@H](CCCNC(=N)N)C(=O)N[C@@H](CCC(=O)O)C(=O)N[C@@H](CCC(N)=O)C(=O)N[C@@H](C)C(=O)N[C@@H](CCC(=O)O)C(=O)N[C@H](C(=O)N[C@@H](CC(N)=O)C(=O)N[C@@H](CN)C(=O)N[C@@H](CCC(N)=O)C(=O)N[C@H](C(=O)N[C@@H](CC(C)C)C(=O)N[C@@H](C)C(=O)N[C@@H](CCC(N)=O)C(=O)N[C@H](C(N)=O)C(C)C)[C@@H](C)CC)[C@@H](C)O)[C@@H](C)CC)[C@@H](C)CC)C(C)C)C(C)C) [SEQ ID NO 55]

Reference: patent publication US20260001928A1 (CORTERIA PHARMACEUTICALS, priority 2022, published 2026)
